Reference: paper PMC11071473 (bioRxiv, 2024)
Where “and” joins values, the source holds several entries; their conditions need not be identical. Equal entries are not always repeated.

Biological target: the molecule itself
Assay: cryo-EM structure

B1: human polymerase theta helicase domain (PolθH, residues 2–894) (domain or fragment, UniProt O75417 2-894, looked up)
chain: NLLRRSGKRRRSESGSDSFSGSGGDSSASPQFLSGSVLSPPPGLGRCLKAAAAGECKPTVPDYERDKLLLANWGLPKAVLEKYHSFGVKKMFEWQAECLLLGQVLEGKNLVYSAPTSAGKTLVAELLILKRVLEMRKKALFILPFVSVAKEKKYYLQSLFQEVGIKVDGYMGSTSPSRHFSSLDIAVCTIERANGLINRLIEENKMDLLGMVVVDELHMLGDSHRGYLLELLLTKICYITRKSASCQADLASSLSNAVQIVGMSATLPNLELVASWLNAELYHTDFRPVPLLESVKVGNSIYDSSMKLVREFEPMLQVKGDEDHVVSLCYETICDNHSVLLFCPSKKWCEKLADIIAREFYNLHHQAEGLVKPSECPPVILEQKELLEVMDQLRRLPSGLDSVLQKTVPWGVAFHHAGLTFEERDIIEGAFRQGLIRVLAATSTLSSGVNLPARRVIIRTPIFGGRPLDILTYKQMVGRAGRKGVDTVGESILICKNSEKSKGIALLQGSLKPVRSCLQRREGEEVTGSMIRAILEIIVGGVASTSQDMHTYAACTFLAASMKEGKQGIQRNQESVQLGAIEACVMWLLENEFIQSTEASDGTEGKVYHPTHLGSATLSSSLSPADTLDIFADLQRAMKGFVLENDLHILYLVTPMFEDWTTIDWYRFFCLWEKLPTSMKRVAELVGVEEGFLARCVKGKVVARTERQHRQMAIHKRFFTSLVLLDLISEVPLREINQKYGCNRGQIQSLQQSAAVYAGMITVFSNRLGWHNMELLLSQFQKRLTFGIQRELCDLVRVSLLNAQRARVLYASGFHTVADLARANIVEVEVILKNAVPFKSARKAVDEEEEAVEERRNMRTIWVTGRKGLTEREAAALIVEEARMILQQDLVEM
- stoichiometry N: 4 and 2
